Laboratory results from patent US20240066131A1 (Protagonist Therapeutics, Inc., priority 2020, published 2024).
Like-named read-outs stand apart in the source and are kept apart here. Positions of bridges follow the written chain, without caps; N, C: chain ends. Non-standard residues stand in square brackets, D forms with d. Residues, ends and D or L forms follow the SMILES beside them. Groups on a side chain read outwards from the residue. *: point of attachment. C18 diacid = O=C(O)CCCCCCCCCCCCCCCCC(=O)*; Dip = N[C@H](C(=O)O)C(c1ccccc1)c1ccccc1; Palmitoyl = CCCCCCCCCCCCCCCC(=O)*; β3hF = N[C@H](CC(=O)O)Cc1ccccc1; Isovaleryl = CC(C)CC(=O)*; LAc = not defined here; AEEA = NCCOCCOCC(=O)O; Ahx = NCCCCCC(=O)O

Tests used:
[1] = target: ferroportin endogenously expressed on T47D cells (HTB 133, ATCC) (human) (UniProt Q9NP59); experiment: cell-based or functional assay
ferroportin [2] = target: T1, ferroportin (Homo sapiens, UniProt Q9NP59); experiment: T47D cell-based ferroportin internalization assay in presence of mouse serum albumin (MSA), AF647 detection peptide, flow cytometry; parameters: a human breast carcinoma adherent cell line which endogenously expresses ferroportin; host or cells: T47D; settings: second Table 6D, T47D/MSA data; with mouse serum albumin
T1 sequence (Q9NP59 1-571): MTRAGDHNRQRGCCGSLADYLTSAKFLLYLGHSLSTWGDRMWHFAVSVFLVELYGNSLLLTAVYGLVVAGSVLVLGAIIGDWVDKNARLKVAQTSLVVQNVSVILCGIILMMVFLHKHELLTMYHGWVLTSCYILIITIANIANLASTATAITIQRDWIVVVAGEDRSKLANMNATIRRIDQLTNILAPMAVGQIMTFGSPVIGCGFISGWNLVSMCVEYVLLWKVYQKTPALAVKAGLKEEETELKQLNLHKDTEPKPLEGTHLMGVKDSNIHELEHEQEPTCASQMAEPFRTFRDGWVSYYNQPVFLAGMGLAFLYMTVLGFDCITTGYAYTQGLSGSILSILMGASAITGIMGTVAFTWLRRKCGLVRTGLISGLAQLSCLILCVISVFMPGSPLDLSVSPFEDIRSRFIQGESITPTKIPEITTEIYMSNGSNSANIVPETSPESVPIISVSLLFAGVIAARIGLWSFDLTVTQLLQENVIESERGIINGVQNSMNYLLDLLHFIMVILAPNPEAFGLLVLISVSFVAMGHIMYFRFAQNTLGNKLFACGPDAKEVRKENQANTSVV
Description: The potency of the peptides in causing ferroportin internalization was evaluated in a T47D cell-based assay. […] In this internalization assay, the potency of the test peptides was evaluated in presence of serum albumin which is the main protein component in the blood. T47D cells were maintained in RPMI media (containing required amount of fetal bovine serum) and regularly sub-cultured. […] The test peptide dilution series were allowed to incubate at room temperature for 30 min. Then the media was aspirated from the 96-well cell plate and test peptide dilution series were added. After 1 hr incubation, the media with test peptides was aspirated out and A1F647-conjugated detection peptide was added at fixed concentration of 200 nM. […] The cells were washed again after a 2 hr incubation in preparation for flow cytometry analysis. The Median Fluorescence Intensity (MFI) of the AF647-positive population was measured (after removing dead cells and non-singlets from the analysis). The MFI values were used to generate a dose-response curve and obtain IC50 potencies for the test peptides. The IC50 potencies were calculated by using 4-parameter non-linear fitting function in Graphpad Prism (Table 6D).

ferroportin [3] = target: T1, ferroportin; experiment: FPN activity assay: internalization/degradation of ferroportin-GFP in stably transfected HEK293 cells (loss of GFP fluorescence); format: cell-based; settings: Table 6A; read-out: FPN EC50
Description: Following internalization, the ferroporin protein is degraded.
A retro inverse peptide is a peptide with a reversed sequence in all D amino acids. An example is that Hy-Glu-Thr-His-NH2 becomes Hy-DHis-DThr-DGlu-NH2. The EC50 of these reference compounds for ferroportin internalization/degradation was determined according to the FPN activity assay described above. These peptides served as control standards.

[4] = target: T2, human ferroportin (SLC40A1) fused in frame with GFP, stably expressed in HEK293 cells (human) (UniProt Q9NP59); experiment: cell-based or functional assay
T2 sequence (looked up): T1 sequence (Q9NP59 1-571)

[5] = target: T3, human ferroportin (SLC40A1) fused in frame with GFP, stably expressed in HEK293 cells (human, UniProt Q9NP59 1-571); experiment: cell-based or functional assay
T3 sequence (looked up): T1 sequence (Q9NP59 1-571)

[6] = target: T4, ferroportin endogenously expressed on T47D cells (HTB 133, ATCC) (human, UniProt Q9NP59 1-571); experiment: cell-based or functional assay
T4 sequence (looked up): T1 sequence (Q9NP59 1-571)

[7] = target: T3, human ferroportin (SLC40A1) fused in …; experiment: cell-based or functional assay; remark: listed apart in the source
[8] = target: T4, ferroportin endogenously expressed on …; experiment: cell-based or functional assay; remark: listed apart in the source
[9] = target: T2, human ferroportin (SLC40A1) fused in frame with GFP, stably expressed in HEK293 cells (human); experiment: cell-based or functional assay; remark: listed apart in the source

For “Isovaleric Acid-K-T-H-[Dpa]-P-E-[Lys(Ahx_Palm)]-NH2 (peptide)”, the T47D MSA IC50 [1] was 0.101 µM.

`CCCCCCCCCCCCCCCC(=O)NCCCCCC(=O)NCCCC[C@H](NC(=O)[C@@H](NC(=O)[C@H](C)NC(=O)[C@@H]1CCCN1C(=O)[C@H](Cc1ccccc1)NC(=O)[C@H](Cc1c[nH]cn1)NC(=O)[C@@H](NC(=O)[C@H](CCC(=O)O)NC(=O)CC(C)C)[C@@H](C)O)[C@@H](C)CC)C(=O)N[C@@H](Cc1ccccc1)C(=O)N[C@@H](CCC(=O)O)C(=O)N1CCC[C@H]1C(=O)N[C@@H](CCCNC(=N)N)C(=O)N[C@@H](CO)C(=O)N[C@@H](CCCCN)C(=O)NCC(=O)N[C@@H](C)C(=O)N[C@@H](CCCCN)C(N)=O` [compound 81] (Isovaleryl-ETHFPAIK([Ahx-Palmitoyl])FEPRSKGAK-NH2) was tested, and the IC50 (ferroportin [2]) was 0.0114 µM.

Molecule `CC[C@H](C)[C@H](NC(=O)[C@H](C)NC(=O)[C@@H]1CCCN1C(=O)[C@@H](NC(=O)[C@H](Cc1c[nH]cn1)NC(=O)[C@@H](NC(=O)[C@H](CCC(=O)O)NC(=O)CC(C)C)[C@@H](C)O)C(c1ccccc1)c1ccccc1)C(=O)N[C@@H](CCCCNC(=O)COCCOCCNC(=O)COCCOCCNC(=O)CCCCCNC(=O)CCCCCCCCCCCCCCCCC(=O)O)C(=O)N[C@H](CC(N)=O)Cc1ccccc1` [compound 76] (Isovaleryl-ETH[Dip]PAIK([AEEA-AEEA-Ahx-C18 diacid])[β3hF]-NH2) has a DC50 (ferroportin [3]) of 0.15 µM and an IC50 (ferroportin [2]) of 0.143 µM.

In the case of “Isovaleric Acid-Dap-T-H-[Dpa]-P-A-I-E-[bhPhe]-[Lys(Ahx_Palm)]-R-NH2 (peptide)”, the T47D MSA IC50 [1] is reported as 0.0364 µM.

Work on “Isovaleric Acid-K-T-H-[Dpa]-P-E-[bhPhe]-[Lys(Ahx_Palm)]-NH2 (peptide)” yielded a T47D MSA IC50 [1] of 0.0156 µM.

“RI-Mini Hepcidin: Hy-DPhe-DIle-DCys-DIle-DPro-DPhe-DHis-DThr-DAsp-NH2 (peptide)” showed a Potency EC50 (nM) [4] greater than 10000 nM.

With `CCCCCCCCCCCCCCCC(=O)NCCCCCC(=O)NCCCC[C@H](NC(=O)[C@@H]1CCC(=O)NCCCC[C@H](NC(=O)CC(C)C)C(=O)N[C@@H]([C@@H](C)O)C(=O)N[C@@H](Cc2c[nH]cn2)C(=O)N[C@@H](C(c2ccccc2)c2ccccc2)C(=O)N2CCC[C@H]2C(=O)N[C@@H](C)C(=O)N[C@@H]([C@@H](C)CC)C(=O)N1)C(N)=O` [compound 309] (Isovaleryl-KTH[Dip]PAIEK([Ahx-Palmitoyl])-NH2; lactam 1-8) the IC50 (ferroportin [2]) was 0.0312 µM.

B1: Isovaleric Acid-E-T-H-[Dpa]-P-A-[Lys(Gal-[Lys(Ahx_Palm)]-[bhPhe]-NH2 (peptide)
peptide: Isovaleryl-ETH[Dip]PAK(Gal)K([Ahx-Palmitoyl])[β3hF]-NH2
For B1, the “FPN IC50” value [5] was 0.042 µM and the “T47D IC50” value [6] was 0.0191 µM.

B2: Isovaleric Acid-E-T-H-[Dpa]-[Lys(Ahx_Palm)]-N_Butyl_Phe (peptide)
peptide: Isovaleryl-ETH[Dip]K([Ahx-Palmitoyl])-N_Butyl_Phe
B2 was tested, and the “FPN IC50” value [7] was 0.0622 µM and the “T47D IC50” value [8] was 0.464 µM.

B3: Mini-Hepcidin 1-9: Hy-…-NH2 (peptide, from a related filing)
peptide: H-DTHFPICIF-NH2
With B3 the Potency EC50 [9] was 0.712 µM.

B4: Isovaleric Acid-E-T-H-[Dpa]-P-A-d[Lys(Gal-[Lys(Ahx_Palm)]-[bhPhe]-NH2 (peptide)
peptide: Isovaleryl-ETH[Dip]PA[dK](Gal)K([Ahx-Palmitoyl])[β3hF]-NH2
B4 was tested, and the “FPN IC50” value [5] was 0.0306 µM and the “T47D IC50” value [6] was 0.00405 µM.

B5: Isovaleric Acid-[Lys(LAc-T-H-[Dpa]-P-A-I-[Lys(Ahx_Palm)]-[bhPhe]-NH2 (peptide)
peptide: Isovaleryl-K(LAc)TH[Dip]PAIK([Ahx-Palmitoyl])[β3hF]-NH2
modifications: reading uncertain
B5 was tested, and the “FPN IC50” value [7] was 0.0275 µM and the “T47D IC50” value [8] was 0.284 µM.

B6: Isovaleric Acid-[Lys(Glu-T-H-[Dpa]-P-A-I-[Lys(Ahx_Palm)]-[bhPhe]-NH2 (peptide)
peptide: Isovaleryl-K(Glu)TH[Dip]PAIK([Ahx-Palmitoyl])[β3hF]-NH2
In the case of B6, the “FPN IC50” value [7] is reported as 0.027 µM and the “T47D IC50” value [8] is reported as 0.229 µM.

B7: Isovaleric Acid-E-T-H-[Dpa]-P-[Lys(Gal-I-[Lys(Ahx_Palm)]-[bhPhe]-NH2 (peptide)
peptide: Isovaleryl-ETH[Dip]PK(Gal)IK([Ahx-Palmitoyl])[β3hF]-NH2
In the case of B7, the “FPN IC50” value [5] is reported as 0.0143 µM and the “T47D IC50” value [6] is reported as 0.0355 µM.
